Patent US20200199204A1 (UNITED STATES OF AMERICA AS REPRESENTED BY THE SECRETARY …, published 2020)

B1: CAP256-VRC26.02 (antibody, V domains shown)
VH: EVQLVESGGGVVQPGRSLRLSCAASQFSFGNYGMHWVRQAPGKGLEWVAAISFAGTKTNYADSVKGRFTISRDNSKNTVYLQMNSLRAEDTALYFCAKDIREYECEYWTSDYYDFGRPQPCIDSRGVVGTFDVWGQGTMVTVSS
VL: QSVLTQPPSVSAAPGQKVTISCSGSNSNIGNKDVSWYQQIPATAPKLLIYENNKRPSGISDRFSGSKSGTSATLAITGLQTGDEADYYCATWDGRVSVIGTGTNVIVLG
B2: CAP256-VRC26.03 (antibody, V domains shown)
VH: EVQLVESGGGVVQPGKSLRLSCAASRFSFNRYGMHWVRQAPGKGLEWVAAISYDGTDKYHADKVWGRFTISRDNSKNTLYLQMNSLRAEDTALYYCAKDLREDECEEWWSDYYDFGKQLPCRKSRGVAGIFDGWGQGTMVTVSS
VL: QSVLTQPPSVSAAPGQKVTISCSGSSSNIGNNFVSWYQQRPGTAPKILIYENNKRPSETPDRFSGSKSGTSATLAITGLQTADEAEYYCATWSASLSSARVFGTGTRITVLG

target: HIV-1 Env of Q168.a2 (HIV-1); assay: cell-based or functional assay

Row | Binder | neutralization IC50
1 | B1 | > 50 µg/mL
2 | B2 | > 50 µg/mL

target: HIV-1 Env of MB539.2B7 (HIV-1); assay: cell-based or functional assay

Row | Binder | neutralization IC50
3 | B1 | > 50 µg/mL
4 | B2 | > 50 µg/mL

target: HIV-1 Env of UG037.8 (HIV-1); assay: cell-based or functional assay

Row | Binder | neutralization IC50
5 | B1 | > 50 µg/mL
6 | B2 | > 50 µg/mL

target: HIV-1 Env of TH976.17 (HIV-1); assay: cell-based or functional assay

Row | Binder | neutralization IC50
7 | B1 | > 50 µg/mL
8 | B2 | > 50 µg/mL

target: HIV-1 Env of CAAN.A2 (HIV-1); assay: cell-based or functional assay

Row | Binder | neutralization IC50
9 | B1 | > 50 µg/mL
10 | B2 | > 50 µg/mL

target: HIV-1 Env of CAP210.E8 (HIV-1); assay: cell-based or functional assay

Row | Binder | neutralization IC50
11 | B1 | 0.062 µg/mL
12 | B2 | 0.011 µg/mL

target: HIV-1 Env of ZM197.7 (HIV-1); assay: cell-based or functional assay

Row | Binder | neutralization IC50
13 | B1 | 1.97 µg/mL
14 | B2 | 0.16 µg/mL

target: HIV-1 Env of 6405.v4.c34 (HIV-1); assay: cell-based or functional assay

Row | Binder | neutralization IC50
15 | B1 | > 50 µg/mL
16 | B2 | > 50 µg/mL

target: HIV-1 Env of RW020.2 (HIV-1); assay: cell-based or functional assay

Row | Binder | neutralization IC50
17 | B1 | > 50 µg/mL
18 | B2 | > 50 µg/mL

target: HIV-1 Env of C1080.c3 (HIV-1); assay: cell-based or functional assay

Row | Binder | neutralization IC50
19 | B1 | > 50 µg/mL
20 | B2 | 0.119 µg/mL

target: HIV-1 Env of KER2018.11 (HIV-1); assay: cell-based or functional assay

Row | Binder | neutralization IC50
21 | B1 | 0.18 µg/mL
22 | B2 | 0.003 µg/mL

target: HIV-1 Env of REJO.67 (HIV-1); assay: cell-based or functional assay

Row | Binder | neutralization IC50
23 | B1 | > 50 µg/mL
24 | B2 | > 50 µg/mL

target: HIV-1 Env of BG505.w6m (HIV-1); assay: cell-based or functional assay

Row | Binder | neutralization IC50
25 | B1 | > 50 µg/mL
26 | B2 | 4.76 µg/mL

target: HIV-1 Env of ZM109.4 (HIV-1); assay: cell-based or functional assay

Row | Binder | neutralization IC50
27 | B1 | > 50 µg/mL
28 | B2 | > 50 µg/mL

target: HIV-1 Env of ZM135.10a (HIV-1); assay: cell-based or functional assay

Row | Binder | neutralization IC50
29 | B1 | > 50 µg/mL
30 | B2 | > 50 µg/mL

target: HIV-1 Env of QH0692.42 (HIV-1); assay: cell-based or functional assay

Row | Binder | neutralization IC50
31 | B1 | > 50 µg/mL
32 | B2 | > 50 µg/mL

target: HIV-1 Env of CAP244.D3 (HIV-1); assay: cell-based or functional assay

Row | Binder | neutralization IC50
33 | B1 | > 50 µg/mL
34 | B2 | > 50 µg/mL

target: HIV-1 Env of CNE3 (HIV-1); assay: cell-based or functional assay

Row | Binder | neutralization IC50
35 | B1 | > 50 µg/mL
36 | B2 | > 50 µg/mL

target: HIV-1 Env of Q461.e2 (HIV-1); assay: cell-based or functional assay

Row | Binder | neutralization IC50
37 | B1 | > 50 µg/mL
38 | B2 | > 50 µg/mL

target: HIV-1 Env of RHPA.7 (HIV-1); assay: cell-based or functional assay

Row | Binder | neutralization IC50
39 | B1 | > 50 µg/mL
40 | B2 | > 50 µg/mL

target: HIV-1 Env of 96ZM651.02 (HIV-1); assay: cell-based or functional assay

Row | Binder | neutralization IC50
41 | B1 | > 50 µg/mL
42 | B2 | > 50 µg/mL

target: HIV-1 Env of 6535.3 (HIV-1); assay: cell-based or functional assay

Row | Binder | neutralization IC50
43 | B1 | > 50 µg/mL
44 | B2 | > 50 µg/mL

target: HIV-1 Env of ZM249.1 (HIV-1); assay: cell-based or functional assay

Row | Binder | neutralization IC50
45 | B1 | > 50 µg/mL
46 | B2 | 0.039 µg/mL

target: HIV-1 Env of ZM214.15 (HIV-1); assay: cell-based or functional assay

Row | Binder | neutralization IC50
47 | B1 | > 50 µg/mL
48 | B2 | 1.5 µg/mL

target: HIV-1 Env of Q842.d12 (HIV-1); assay: cell-based or functional assay

Row | Binder | neutralization IC50
49 | B1 | > 50 µg/mL
50 | B2 | > 50 µg/mL

target: HIV-1 Env of AC10.29 (HIV-1); assay: cell-based or functional assay

Row | Binder | neutralization IC50
51 | B1 | > 50 µg/mL
52 | B2 | > 50 µg/mL

target: HIV-1 Env of ZM233.6 (HIV-1); assay: cell-based or functional assay

Row | Binder | neutralization IC50
53 | B1 | 0.701 µg/mL
54 | B2 | 0.032 µg/mL

target: HIV-1 Env of PVO.04 (HIV-1); assay: cell-based or functional assay

Row | Binder | neutralization IC50
55 | B1 | 7.98 µg/mL
56 | B2 | > 50 µg/mL

target: HIV-1 Env of THRO.18 (HIV-1); assay: cell-based or functional assay

Row | Binder | neutralization IC50
57 | B1 | > 50 µg/mL
58 | B2 | > 50 µg/mL

target: HIV-1 Env of CM244.ec1 (HIV-1); assay: cell-based or functional assay

Row | Binder | neutralization IC50
59 | B1 | 2.03 µg/mL
60 | B2 | 0.003 µg/mL

target: HIV-1 Env of CAP256.PI (HIV-1); assay: cell-based or functional assay

Row | Binder | neutralization IC50
61 | B1 | > 50 µg/mL
62 | B2 | > 50 µg/mL

target: HIV-1 Env of TRO.11 (HIV-1); assay: cell-based or functional assay

Row | Binder | neutralization IC50
63 | B1 | > 50 µg/mL
64 | B2 | > 50 µg/mL

target: HIV-1 Env of KER2008.12 (HIV-1); assay: cell-based or functional assay

Row | Binder | neutralization IC50
65 | B1 | > 50 µg/mL
66 | B2 | > 50 µg/mL

target: HIV-1 Env of MB201 (HIV-1); assay: cell-based or functional assay

Row | Binder | neutralization IC50
67 | B1 | > 50 µg/mL
68 | B2 | > 50 µg/mL

target: HIV-1 Env of 191821.E6.1 (HIV-1); assay: cell-based or functional assay

Row | Binder | neutralization IC50
69 | B1 | > 50 µg/mL
70 | B2 | > 50 µg/mL

target: HIV-1 Env of Q23.17 (HIV-1); assay: cell-based or functional assay

Row | Binder | neutralization IC50
71 | B1 | > 50 µg/mL
72 | B2 | > 50 µg/mL

target: HIV-1 Env of 0260.v5.c36 (HIV-1); assay: cell-based or functional assay

Row | Binder | neutralization IC50
73 | B1 | > 50 µg/mL
74 | B2 | > 50 µg/mL

target: HIV-1 Env of DU172.17 (HIV-1); assay: cell-based or functional assay

Row | Binder | neutralization IC50
75 | B1 | > 50 µg/mL
76 | B2 | > 50 µg/mL

target: HIV-1 Env of SC422.8 (HIV-1); assay: cell-based or functional assay

Row | Binder | neutralization IC50
77 | B1 | > 50 µg/mL
78 | B2 | > 50 µg/mL

target: HIV-1 Env of Q769.d22 (HIV-1); assay: cell-based or functional assay

Row | Binder | neutralization IC50
79 | B1 | > 50 µg/mL
80 | B2 | > 50 µg/mL

target: HIV-1 Env of 3016.V5.c36 (HIV-1); assay: cell-based or functional assay

Row | Binder | neutralization IC50
81 | B1 | 0.057 µg/mL
82 | B2 | 0.118 µg/mL

target: HIV-1 Env of DU156.12 (HIV-1); assay: cell-based or functional assay

Row | Binder | neutralization IC50
83 | B1 | > 50 µg/mL
84 | B2 | 0.117 µg/mL

target: HIV-1 Env of TRJO.58 (HIV-1); assay: cell-based or functional assay

Row | Binder | neutralization IC50
85 | B1 | > 50 µg/mL
86 | B2 | > 50 µg/mL

target: HIV-1 Env of CAP256.SU (HIV-1); assay: cell-based or functional assay

Row | Binder | neutralization IC50
87 | B1 | 0.015 µg/mL
88 | B2 | 0.004 µg/mL

target: HIV-1 Env of CAP45.G3 (HIV-1); assay: cell-based or functional assay

Row | Binder | neutralization IC50
89 | B1 | > 50 µg/mL
90 | B2 | 10.7 µg/mL

target: HIV-1 Env of Q259.d2.17 (HIV-1); assay: cell-based or functional assay

Row | Binder | neutralization IC50
91 | B1 | > 50 µg/mL
92 | B2 | 0.014 µg/mL

target: HIV-1 Env of ZM53.12 (HIV-1); assay: cell-based or functional assay

Row | Binder | neutralization IC50
93 | B1 | 0.043 µg/mL
94 | B2 | 0.008 µg/mL

target: HIV-1 Env of DU422.01 (HIV-1); assay: cell-based or functional assay

Row | Binder | neutralization IC50
95 | B1 | > 50 µg/mL
96 | B2 | 0.134 µg/mL

target: HIV-1 Env of WITO.33 (HIV-1); assay: cell-based or functional assay

Row | Binder | neutralization IC50
97 | B1 | > 50 µg/mL
98 | B2 | > 50 µg/mL
